Test results as given in the supplement of paper PMC10126150.
± gives the standard deviation of the averaged measurements.

test system: ATP; experiment: switch fluorescence ratio, 500 uM ATP over buffer (Cy3 cluster intensity, sum of 5 cycles each) (fold (ratio)); higher = stronger signal-on switching upon ATP binding; sequences stand for … in TCGTCGGCAGCGTCAGATGTGTATAAGAGACAGTTTTTTTTTTTTTTTTTTTTTTTTT…TC; details: aptamer strand: ATP DNA aptamer (quencher-CACCTGGGGGAGTATTGCGGAGGAAGG + anchor), 100 nM annealed; ATP concentration: 500 uM
Outline: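 The fluorescence ratio divides summed target-cycle Cy3 intensity by summed buffer-cycle Cy3 intensity for each cluster and is averaged per switch-domain sequence. Cy3-labelled switching-strand clusters on a modified Illumina MiSeq flow-cell were annealed to 100 nM quencher-labelled ATP aptamer, then imaged in selection buffer and again after 15 min with 500 uM ATP at 22 °C. Five such cycles were run, with NaOH stripping and re-annealing between them, and clusters outside 100-1000 RFU were excluded.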
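Note: ATP exposure 15 min at 22 °C before imaging.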

For TGGGGATAGG, which switch fluorescence ratio is on record?
The switch fluorescence ratio was 1.01 ± 0.022.

TGGGGATCGG was tested. Which switch fluorescence ratio did it give?
Its switch fluorescence ratio is 0.973 ± 0.025.

With TGGGGATTAA as the sequence, how does the switch fluorescence ratio read?
Its switch fluorescence ratio is 0.991 ± 0.013.

With TGGGGATTTA as the sequence, how does the switch fluorescence ratio read?
The switch fluorescence ratio was 1.003 ± 0.0072.

Which switch fluorescence ratio does the source give for TGGGGCACAT here?
The switch fluorescence ratio was 1.02 ± 0.022.

For TGGGGCCCCG, which switch fluorescence ratio is on record?
The switch fluorescence ratio was 1 ± 0.013.

How did the switch fluorescence ratio turn out when TGGGGCCGTG was run?
The switch fluorescence ratio was 1.04 ± 0.04.

With TGGGGCGAAA as the sequence, how does the switch fluorescence ratio read?
The switch fluorescence ratio was 0.997 ± 0.089.

Which switch fluorescence ratio does the source give for TGGGGCGAGG here?
Its switch fluorescence ratio is 1.01 ± 0.014.

How did the switch fluorescence ratio turn out when TGGGGCTAGG was run?
The switch fluorescence ratio was 0.993 ± 0.018.

How did the switch fluorescence ratio turn out when TGGGGCTGGT was run?
Its switch fluorescence ratio is 0.99 ± 0.018.

TGGGGCTTGG was tested. Which switch fluorescence ratio did it give?
Its switch fluorescence ratio is 1.01 ± 0.051.

Which switch fluorescence ratio does the source give for TGGGGGAATT here?
The switch fluorescence ratio was 1 ± 0.029.

For TGGGGGACCC, which switch fluorescence ratio is on record?
The switch fluorescence ratio was 1 ± 0.061.

With TGGGGGAGGG as the sequence, how does the switch fluorescence ratio read?
The switch fluorescence ratio was 1 ± 0.054.

For TGGGGGATG, which switch fluorescence ratio is on record?
Its switch fluorescence ratio is 0.971 ± 0.018.

Which switch fluorescence ratio does the source give for TGGGGGCGCG here?
The switch fluorescence ratio was 0.984 ± 0.042.

TGGGGGCTTG was tested. Which switch fluorescence ratio did it give?
The switch fluorescence ratio was 0.993 ± 0.024.

With TGGGGGGACT as the sequence, how does the switch fluorescence ratio read?
Its switch fluorescence ratio is 1.02 ± 0.029.

For TGGGGGGATC, which switch fluorescence ratio is on record?
Its switch fluorescence ratio is 1.009 ± 0.0082.

TGGGGGGG was tested. Which switch fluorescence ratio did it give?
Its switch fluorescence ratio is 1 ± 0.024.

Which switch fluorescence ratio does the source give for TGGGGGGGA here?
Its switch fluorescence ratio is 1.03 ± 0.031.

How did the switch fluorescence ratio turn out when TGGGGGGGCT was run?
Its switch fluorescence ratio is 1.02 ± 0.036.

With TGGGGGGTTA as the sequence, how does the switch fluorescence ratio read?
The switch fluorescence ratio was 0.995 ± 0.024.

TGGGGGTAAT was tested. Which switch fluorescence ratio did it give?
The switch fluorescence ratio was 0.992 ± 0.029.

With TGGGGGTACG as the sequence, how does the switch fluorescence ratio read?
The switch fluorescence ratio was 1.028 ± 0.0016.

Which switch fluorescence ratio does the source give for TGGGGGTAGG here?
The switch fluorescence ratio was 1.01 ± 0.027.

TGGGGGTGAG was tested. Which switch fluorescence ratio did it give?
The switch fluorescence ratio was 1 ± 0.029.

How did the switch fluorescence ratio turn out when TGGGGGTGCA was run?
Its switch fluorescence ratio is 1.01 ± 0.035.

How did the switch fluorescence ratio turn out when TGGGGGTGGC was run?
The switch fluorescence ratio was 1.01 ± 0.052.

With TGGGGGTGGG as the sequence, how does the switch fluorescence ratio read?
The switch fluorescence ratio was 1.02 ± 0.044.

Which switch fluorescence ratio does the source give for TGGGGGTGTA here?
The switch fluorescence ratio was 1.05 ± 0.039.

With TGGGGGTTTA as the sequence, how does the switch fluorescence ratio read?
The switch fluorescence ratio was 1.03 ± 0.019.

How did the switch fluorescence ratio turn out when TGGGGTACAT was run?
The switch fluorescence ratio was 0.991 ± 0.016.

How did the switch fluorescence ratio turn out when TGGGGTAGCA was run?
Its switch fluorescence ratio is 1.01 ± 0.029.

For TGGGGTAGTT, which switch fluorescence ratio is on record?
The switch fluorescence ratio was 0.995 ± 0.01.

For TGGGGTATGT, which switch fluorescence ratio is on record?
The switch fluorescence ratio was 1 ± 0.031.

For TGGGGTCAAA, which switch fluorescence ratio is on record?
Its switch fluorescence ratio is 0.995 ± 0.036.

For TGGGGTCATG, which switch fluorescence ratio is on record?
The switch fluorescence ratio was 0.9887 ± 0.0096.

How did the switch fluorescence ratio turn out when TGGGGTGGTG was run?
The switch fluorescence ratio was 0.9992 ± 0.0038.

How did the switch fluorescence ratio turn out when TGGGGTGTGG was run?
The switch fluorescence ratio was 1.23 ± 0.36.

For TGGGGTGTTG, which switch fluorescence ratio is on record?
Its switch fluorescence ratio is 0.983 ± 0.011.

How did the switch fluorescence ratio turn out when TGGGGTTCGA was run?
Its switch fluorescence ratio is 0.975 ± 0.024.

With TGGGGTTGTA as the sequence, how does the switch fluorescence ratio read?
The switch fluorescence ratio was 1.01 ± 0.056.

For TGGGGTTGTT, which switch fluorescence ratio is on record?
The switch fluorescence ratio was 0.985 ± 0.033.

Which switch fluorescence ratio does the source give for TGGGGTTTGA here?
The switch fluorescence ratio was 0.997 ± 0.032.

For TGGGTAACGA, which switch fluorescence ratio is on record?
The switch fluorescence ratio was 0.962 ± 0.021.

How did the switch fluorescence ratio turn out when TGGGTAATCC was run?
Its switch fluorescence ratio is 1.03 ± 0.025.

TGGGTACTTT was tested. Which switch fluorescence ratio did it give?
Its switch fluorescence ratio is 0.994 ± 0.016.

How did the switch fluorescence ratio turn out when TGGGTAGGAT was run?
Its switch fluorescence ratio is 1.02 ± 0.018.

With TGGGTAGGGA as the sequence, how does the switch fluorescence ratio read?
The switch fluorescence ratio was 0.9759 ± 0.0093.

With TGGGTAGTGT as the sequence, how does the switch fluorescence ratio read?
Its switch fluorescence ratio is 1 ± 0.026.

TGGGTATCTT was tested. Which switch fluorescence ratio did it give?
Its switch fluorescence ratio is 1.03 ± 0.061.

With TGGGTATTCT as the sequence, how does the switch fluorescence ratio read?
Its switch fluorescence ratio is 0.945 ± 0.024.

With TGGGTATTGG as the sequence, how does the switch fluorescence ratio read?
Its switch fluorescence ratio is 1 ± 0.03.

How did the switch fluorescence ratio turn out when TGGGTCAGTC was run?
Its switch fluorescence ratio is 1.05 ± 0.021.

Which switch fluorescence ratio does the source give for TGGGTCATTT here?
The switch fluorescence ratio was 0.99 ± 0.034.

TGGGTCGGCA was tested. Which switch fluorescence ratio did it give?
Its switch fluorescence ratio is 1.05 ± 0.023.

TGGGTCGGGC was tested. Which switch fluorescence ratio did it give?
Its switch fluorescence ratio is 0.9905 ± 0.009.

For TGGGTCTCTT, which switch fluorescence ratio is on record?
The switch fluorescence ratio was 1.01 ± 0.008.

How did the switch fluorescence ratio turn out when TGGGTGAGTT was run?
The switch fluorescence ratio was 1.02 ± 0.019.

For TGGGTGATAG, which switch fluorescence ratio is on record?
The switch fluorescence ratio was 0.99 ± 0.035.

For TGGGTGATCG, which switch fluorescence ratio is on record?
The switch fluorescence ratio was 1.03 ± 0.067.

With TGGGTGCGG as the sequence, how does the switch fluorescence ratio read?
The switch fluorescence ratio was 0.984 ± 0.026.

For TGGGTGGAGA, which switch fluorescence ratio is on record?
Its switch fluorescence ratio is 1.02 ± 0.021.

Which switch fluorescence ratio does the source give for TGGGTGGGAT here?
The switch fluorescence ratio was 1.002 ± 0.009.

For TGGGTGGGTA, which switch fluorescence ratio is on record?
The switch fluorescence ratio was 1.03 ± 0.026.

For TGGGTGGGTC, which switch fluorescence ratio is on record?
The switch fluorescence ratio was 1.05 ± 0.069.

TGGGTGGGTG was tested. Which switch fluorescence ratio did it give?
The switch fluorescence ratio was 1.04 ± 0.053.

For TGGGTGGTGT, which switch fluorescence ratio is on record?
The switch fluorescence ratio was 1.016 ± 0.0034.

TGGGTGTCGC was tested. Which switch fluorescence ratio did it give?
Its switch fluorescence ratio is 0.9672 ± 0.0039.

TGGGTGTCGT was tested. Which switch fluorescence ratio did it give?
The switch fluorescence ratio was 1.02 ± 0.081.

How did the switch fluorescence ratio turn out when TGGGTTAAGT was run?
The switch fluorescence ratio was 1 ± 0.021.

How did the switch fluorescence ratio turn out when TGGGTTACTA was run?
The switch fluorescence ratio was 1.002 ± 0.0097.

Which switch fluorescence ratio does the source give for TGGGTTCCCG here?
Its switch fluorescence ratio is 0.986 ± 0.013.

How did the switch fluorescence ratio turn out when TGGGTTCGGC was run?
Its switch fluorescence ratio is 0.9808 ± 0.0045.

For TGGGTTCTAT, which switch fluorescence ratio is on record?
Its switch fluorescence ratio is 0.9874 ± 0.0077.

For TGGGTTCTTG, which switch fluorescence ratio is on record?
Its switch fluorescence ratio is 0.998 ± 0.044.

Which switch fluorescence ratio does the source give for TGGGTTGATT here?
Its switch fluorescence ratio is 1.01 ± 0.031.

How did the switch fluorescence ratio turn out when TGGGTTGGGA was run?
Its switch fluorescence ratio is 0.991 ± 0.035.

With TGGGTTGGGG as the sequence, how does the switch fluorescence ratio read?
Its switch fluorescence ratio is 1.01 ± 0.049.

With TGGGTTGTAT as the sequence, how does the switch fluorescence ratio read?
Its switch fluorescence ratio is 0.998 ± 0.02.

With TGGGTTTAGC as the sequence, how does the switch fluorescence ratio read?
Its switch fluorescence ratio is 1 ± 0.043.

For TGGGTTTGGC, which switch fluorescence ratio is on record?
The switch fluorescence ratio was 1.02 ± 0.023.

TGGTAAACGG was tested. Which switch fluorescence ratio did it give?
The switch fluorescence ratio was 0.988 ± 0.02.

How did the switch fluorescence ratio turn out when TGGTAAACGT was run?
Its switch fluorescence ratio is 1.05 ± 0.026.

Which switch fluorescence ratio does the source give for TGGTAAAGCT here?
Its switch fluorescence ratio is 0.994 ± 0.017.

TGGTAAATAT was tested. Which switch fluorescence ratio did it give?
Its switch fluorescence ratio is 1.01 ± 0.013.

TGGTAACGGT was tested. Which switch fluorescence ratio did it give?
Its switch fluorescence ratio is 1.09 ± 0.12.

For TGGTAATTAG, which switch fluorescence ratio is on record?
The switch fluorescence ratio was 0.979 ± 0.014.

With TGGTACCTTT as the sequence, how does the switch fluorescence ratio read?
Its switch fluorescence ratio is 1.04 ± 0.012.

Which switch fluorescence ratio does the source give for TGGTAGAAGG here?
The switch fluorescence ratio was 0.954 ± 0.013.

Which switch fluorescence ratio does the source give for TGGTAGAGGG here?
The switch fluorescence ratio was 0.986 ± 0.014.

With TGGTAGCAGG as the sequence, how does the switch fluorescence ratio read?
The switch fluorescence ratio was 1.24 ± 0.35.

For TGGTAGGGG, which switch fluorescence ratio is on record?
Its switch fluorescence ratio is 1.01 ± 0.016.

Which switch fluorescence ratio does the source give for TGGTAGGTGG here?
Its switch fluorescence ratio is 1.017 ± 0.0049.

Which switch fluorescence ratio does the source give for TGGTATGCGC here?
Its switch fluorescence ratio is 0.9971 ± 0.0047.

With TGGTATGTCA as the sequence, how does the switch fluorescence ratio read?
Its switch fluorescence ratio is 0.9913 ± 0.0059.

With TGGTATGTGA as the sequence, how does the switch fluorescence ratio read?
The switch fluorescence ratio was 1.01 ± 0.032.

For TGGTATGTGT, which switch fluorescence ratio is on record?
Its switch fluorescence ratio is 1.003 ± 0.0057.
